Article PMC4139157

Biological target: human plasma fibrinogen (human) (UniProt P02671)
Test: ELISA

UniProt P02671, sequence (P02671 36-866, chain 1 of 3): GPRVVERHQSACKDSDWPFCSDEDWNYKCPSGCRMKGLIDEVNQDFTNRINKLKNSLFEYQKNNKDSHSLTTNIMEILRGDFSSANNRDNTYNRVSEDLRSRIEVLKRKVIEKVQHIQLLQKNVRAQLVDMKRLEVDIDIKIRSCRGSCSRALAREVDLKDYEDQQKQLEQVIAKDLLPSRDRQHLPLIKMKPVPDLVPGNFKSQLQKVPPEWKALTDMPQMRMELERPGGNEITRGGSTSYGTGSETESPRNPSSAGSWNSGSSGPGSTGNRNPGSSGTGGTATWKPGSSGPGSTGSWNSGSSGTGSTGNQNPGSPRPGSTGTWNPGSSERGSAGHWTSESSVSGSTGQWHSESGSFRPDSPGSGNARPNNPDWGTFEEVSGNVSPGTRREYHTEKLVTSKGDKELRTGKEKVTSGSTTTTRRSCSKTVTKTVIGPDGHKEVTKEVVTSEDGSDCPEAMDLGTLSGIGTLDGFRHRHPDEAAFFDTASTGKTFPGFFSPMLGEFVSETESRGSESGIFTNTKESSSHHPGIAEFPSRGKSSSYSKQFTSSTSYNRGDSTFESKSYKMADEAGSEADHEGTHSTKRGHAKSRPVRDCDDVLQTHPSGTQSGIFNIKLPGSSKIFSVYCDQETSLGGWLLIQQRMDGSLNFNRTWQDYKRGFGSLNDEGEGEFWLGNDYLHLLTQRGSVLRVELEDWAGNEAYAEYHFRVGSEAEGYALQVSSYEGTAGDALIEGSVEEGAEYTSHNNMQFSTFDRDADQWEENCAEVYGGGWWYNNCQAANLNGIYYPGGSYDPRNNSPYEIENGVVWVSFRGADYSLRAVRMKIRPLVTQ
UniProt P02671, sequence (P02675 45-491, chain 2 of 3, further chain): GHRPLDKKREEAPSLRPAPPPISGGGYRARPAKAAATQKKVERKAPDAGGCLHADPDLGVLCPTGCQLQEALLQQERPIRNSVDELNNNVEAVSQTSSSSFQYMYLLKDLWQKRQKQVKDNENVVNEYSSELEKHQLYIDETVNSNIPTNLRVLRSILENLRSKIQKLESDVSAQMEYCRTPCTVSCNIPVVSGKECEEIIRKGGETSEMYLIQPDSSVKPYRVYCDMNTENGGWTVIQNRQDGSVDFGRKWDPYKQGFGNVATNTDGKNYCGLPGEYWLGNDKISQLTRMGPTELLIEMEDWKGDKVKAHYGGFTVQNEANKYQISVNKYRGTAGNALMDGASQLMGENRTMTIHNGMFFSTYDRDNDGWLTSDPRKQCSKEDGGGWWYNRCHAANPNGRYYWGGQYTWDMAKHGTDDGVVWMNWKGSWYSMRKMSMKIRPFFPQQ
UniProt P02671, sequence (P02679 27-453, chain 3 of 3, further chain): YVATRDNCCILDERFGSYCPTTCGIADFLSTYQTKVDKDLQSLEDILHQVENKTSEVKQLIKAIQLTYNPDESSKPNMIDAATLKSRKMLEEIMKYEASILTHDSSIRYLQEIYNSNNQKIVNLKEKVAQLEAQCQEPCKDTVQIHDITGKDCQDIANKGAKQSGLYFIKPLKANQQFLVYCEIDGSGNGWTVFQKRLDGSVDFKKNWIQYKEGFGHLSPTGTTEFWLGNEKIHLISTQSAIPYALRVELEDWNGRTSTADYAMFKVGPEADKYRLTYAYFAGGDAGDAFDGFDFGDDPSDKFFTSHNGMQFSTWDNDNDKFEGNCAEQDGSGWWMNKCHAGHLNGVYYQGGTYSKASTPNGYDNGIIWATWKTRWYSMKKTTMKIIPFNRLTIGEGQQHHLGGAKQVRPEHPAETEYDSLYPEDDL

Substance	Kd [µM]
Histidine-tagged LigBCen2R (amino acids 1014–1123 of LigB) (domain or fragment)	117
Histidine-tagged LigB-12 (amino acids 1029–1123 of LigB) (domain or fragment)	125
